Laboratory results reported in PMC7841161, “APE1 distinguishes DNA substrates in exonucleolytic cleavage by induced space-filling”.

Key:
mAPE1 full-length [1] = target: T1, mAPE1 full-length (mouse, UniProt P28352 1-317); test: EMSA; 50 mM EDTA; weak low-MW complex seen; EMSA: 50 mM EDTA, 20 mM Tris-HCl pH 7.0, 120 mM NaCl, on ice 10 min + 10 min, FAM-labeled substrates, TBE native gel; conditions: protein: recombinant; label: FAM; 3 strands, nick between strands 1 and 2
mAPE1 full-length [2] = target: T1, mAPE1 full-length; test: EMSA; 50 mM EDTA; extra low-MW complex at 0.5 uM, higher affinity than ends; EMSA: 50 mM EDTA, 20 mM Tris-HCl pH 7.0, 120 mM NaCl, on ice 10 min + 10 min, FAM-labeled substrates, TBE native gel; conditions: protein: recombinant; label: FAM; 3 strands, 1-nt gap between strands 1 and 2
mAPE1 full-length [3] = target: T1, mAPE1 full-length; test: EMSA; 50 mM EDTA; mostly complexed at 5 uM, stronger than blunt; EMSA: 50 mM EDTA, 20 mM Tris-HCl pH 7.0, 120 mM NaCl, on ice 10 min + 10 min, FAM-labeled substrates, TBE native gel; conditions: protein: recombinant; label: FAM; 5' overhang 20 nt on strand 2
[4] = target: mAPE1 in blunt-ended crystal (mouse, UniProt P28352 40-317); test: X-ray crystallography; product complex; EMSA: 50 mM EDTA, 20 mM Tris-HCl pH 7.0, 120 mM NaCl, on ice 10 min + 10 min, FAM-labeled substrates, TBE native gel; conditions: protein: recombinant; chain copies: 2; 2 copies of one strand, 1-nt 5' overhangs; central A-A from self-pairing
mAPE1 in blunt-ended crystal, sequence (P28352 40-317): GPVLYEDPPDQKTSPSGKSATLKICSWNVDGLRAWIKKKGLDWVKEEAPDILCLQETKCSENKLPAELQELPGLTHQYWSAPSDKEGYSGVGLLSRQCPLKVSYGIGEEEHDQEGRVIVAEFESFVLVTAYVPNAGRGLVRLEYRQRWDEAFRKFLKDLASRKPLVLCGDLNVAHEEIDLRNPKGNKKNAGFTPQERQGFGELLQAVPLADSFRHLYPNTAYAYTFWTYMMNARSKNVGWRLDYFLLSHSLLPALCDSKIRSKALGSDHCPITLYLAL

mAPE1 full-length [5] = target: T1, mAPE1 full-length; test: EMSA; 50 mM EDTA; similar to blunt; EMSA: 50 mM EDTA, 20 mM Tris-HCl pH 7.0, 120 mM NaCl, on ice 10 min + 10 min, FAM-labeled substrates, TBE native gel; conditions: protein: recombinant, label: FAM
mAPE1 full-length [6] = target: T1, mAPE1 full-length; test: EMSA; 50 mM EDTA; complex visible at 1 uM mAPE1; EMSA: 50 mM EDTA, 20 mM Tris-HCl pH 7.0, 120 mM NaCl, on ice 10 min + 10 min, FAM-labeled substrates, TBE native gel; conditions: protein: recombinant, label: FAM
[7] = target: mAPE1 in recessed crystal (mouse, UniProt P28352 31-317); test: X-ray crystallography; product complex; EMSA: 50 mM EDTA, 20 mM Tris-HCl pH 7.0, 120 mM NaCl, on ice 10 min + 10 min, FAM-labeled substrates, TBE native gel; conditions: protein: recombinant; 2 copies of one strand, 2-nt 5' overhangs; central A-A from self-pairing
mAPE1 in recessed crystal, sequence (P28352 31-317): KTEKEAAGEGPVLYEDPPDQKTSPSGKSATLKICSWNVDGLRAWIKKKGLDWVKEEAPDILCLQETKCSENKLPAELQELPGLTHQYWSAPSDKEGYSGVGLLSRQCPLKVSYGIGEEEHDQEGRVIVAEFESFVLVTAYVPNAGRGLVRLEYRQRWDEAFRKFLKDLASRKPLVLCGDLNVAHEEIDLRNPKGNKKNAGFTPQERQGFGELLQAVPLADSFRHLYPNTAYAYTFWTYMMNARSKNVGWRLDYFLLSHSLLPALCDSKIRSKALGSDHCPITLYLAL

T1 sequence (P28352 whole entry): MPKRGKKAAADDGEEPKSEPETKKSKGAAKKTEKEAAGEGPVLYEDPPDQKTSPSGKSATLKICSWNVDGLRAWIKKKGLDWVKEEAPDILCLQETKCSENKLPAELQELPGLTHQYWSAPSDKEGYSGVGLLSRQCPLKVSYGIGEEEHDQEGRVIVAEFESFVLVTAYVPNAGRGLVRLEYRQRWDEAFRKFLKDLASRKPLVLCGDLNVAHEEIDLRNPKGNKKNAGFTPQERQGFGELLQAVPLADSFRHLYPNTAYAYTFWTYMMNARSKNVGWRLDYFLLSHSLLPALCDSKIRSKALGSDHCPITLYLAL

B1: nicked dsDNA 40 mer 5'-OH (dsDNA)
DNA 1: ACTGGACAAATACTCCGAGG
DNA 2: GTGATTAGTGAAGCGTGCTC
DNA 3: GAGCACGCTTCACTAATCACCCTCGGAGTATTTGTCCAGT
modifications: 5'-OH at nick
B1: binds (mAPE1 full-length [1]).

B2: 1-nt gapped dsDNA 40 mer, matched (dsDNA)
DNA 1: ACTGGACAAATACTCCGAGG
DNA 2: TGATTAGTGAAGCGTGCTC
DNA 3: B1 DNA 3
modifications: 5'-OH or 5'-phosphate at gap margin (not stated which for EMSA)
B2: binds (mAPE1 full-length [2]).

B3: recessed dsDNA 20 nt 5' overhang (dsDNA)
DNA 1: ACTGGACAAATACTCCGAGG
DNA 2: B1 DNA 3
B3: binds (mAPE1 full-length [3]).

B4: blunt-ended dsDNA product (crystal) (dsDNA)
DNA 1: CGTAATAC
DNA 2: CGTAATAC
B4: binds [4].

B5: dsDNA 20 mer 2 nt mismatch (dsDNA)
DNA 1: ACTGGACAAATACTCCGAGG
DNA 2: AATCGGAGTATTTGTCCAGT
B5: binds (mAPE1 full-length [5]; 2 nt mismatch at 3' end of strand 1).

B6: recessed dsDNA 5 nt 5' overhang (dsDNA)
DNA 1: ACTGGACAAATACTCCGAGG
DNA 2: ATCACCCTCGGAGTATTTGTCCAGT
B6: binds (mAPE1 full-length [6]; 5' overhang 5 nt on strand 2).

B7: blunt-ended dsDNA 20 bp (dsDNA)
DNA 1: ACTGGACAAATACTCCGAGG
DNA 2: CCTCGGAGTATTTGTCCAGT
B7: binds (mAPE1 full-length [6]; blunt).

B8: dsDNA 20 mer 1 nt mismatch (dsDNA)
DNA 1: ACTGGACAAATACTCCGAGG
DNA 2: ACTCGGAGTATTTGTCCAGT
B8: binds (mAPE1 full-length [5]; 1 nt mismatch at 3' end of strand 1).

B9: recessed dsDNA product (crystal) (dsDNA)
DNA 1: GCGTAATAC
DNA 2: GCGTAATAC
B9: binds [7].
